Experiments:
[1] = test system: virulent capsular type 3 Streptococcus pneumoniae strain, WU2; test: Protection experiment, Example 4: active immunization of xid mice, challenge with WU2; format: in vivo; conditions: CBA/CaHN/J xid mice; about 22 μg s.c. in CFA, 100 μg IP 14 days later; IV challenge 60 CFU WU2; observed 21 days
Method: CBA/CaHN/J Mice. X-linked immune deficiency (xid) CBA/N mice as described by Wicker et al., Curr. Top. Microbiol, Immunol. 124:86-[0] were used to study the protection afforded by the 37-kDa protein.
Twenty CBA/CaHN/J mice carrying the xid mutation […] immunodeficiency) were used in this protection study. They were tested for protection against challenge with a virulent capsulan type 3 Streptococcus pneumoniae strain, WU2. Mice were anesthetized with Ketamine/Rompum and bled infraorbitally to obtain pre-immunization sera. 37-kDa protein (pneumococcal surface adhesin A) was emulsified in complete Freund's adjuvant (CFA) to a protein concentration of 54 μg per ml. Ten mice were injected subcutaneously into 2 axillary and 2 inguinal sites at 0.1 ml per site, delivering approximately 22 μg protein/mouse. Ten control mice were treated identically with CFA and buffer substituting for protein. Fourteen days later, the ten test mice were injected intraperitoneally (IP) with 100 μg of the 37-kDa protein; controls were injected IP with buffer. Eight days following the IP immunizations, all mice were bled infraorbitally to obtain post-immunization sera, and challenged intravenously (IV) with 60 CFU of a log phase culture of S. pneumoniae strain WU2. […]

[2] = test system: S. pneumoniae type 3 strain, WU2; test: Protection experiment, Example 5: active immunization of xid mice, challenge with WU2; format: in vivo, Streptococcus pneumoniae; conditions: CBA/CaHN/J xid mice immunized with 21 μg s.c. in CFA plus 100 μg IP boost; IV challenge 140 CFU WU2
Method: Twenty CBA/CaHN/J mice carrying the xid mutation were injected according to the following protocol:
1. All mice were bled prior to immunization to establish baseline immunity. Ten test mice were immunized subcutaneously in four sites with a total of 21 μg of 37-kDa protein antigen (pneumococcal fimbrial protein A) emulsified in Complete Freund's adjuvant (CFA). Ten control mice were immunized identically with CFA and buffer substituting for the antigen.
2. Fourteen days later, the mice were boosted intraperitoneally (IP) with 100 μg of the 37-kDa protein antigen (test mice) or with buffer (controls). No adjuvant was used with this booster immunization.
3. Eight days later, all mice were bled via the infraorbital sinus and the were collected and pooled into the two groups (immunized and controls). At the same time, blood was collected from individual mice to assay for antibody responses.
6. At the same time, the eighteen (8 test and 10 control) mice were challenged I.V with the same culture of WU2.
7. Deaths were tallied daily.

B1: 37-kDa protein: 37-kDa species-common S. pneumoniae protein, pneumococcal surface adhesin A (PsaA), used as immunogen (protein)
chain: CASGKKDTTSGQKLKVVATNSIIADITKNIAGDKIDLHSIVPIGQDPHEYEPLPEDVKKTSEADLIFYNGINLETGGNAWFTKLVENAKKTENKDYFAVSDGVDVIYLEGQNEKGKEDPHAWLNLENGIIFAKNIAKQLSAKDPNNKEFYEKNLKEYTDKLDKLDKESKDKFNKIPAEKKLIVTSEGAFKYFSKAYGVPSAYIWEINTEEEGTPEQIKTLVEKLRQTKVPSLFVESSVDDRPMKTVSQDTNIPIYAQIFTDSIAEQGKEGDSYYSMMKYNLDKIAEGLAK
**Q.** What does the source list for B1?
**A.** survived (mice surviving/total) [1]: 10/10; No. Dead/Total No. Challenged [2]: 0/8

From patent publication US20070218051A1, “Epitope peptides immunogenic against Streptococcus pneumoniae” (Sarvamangala J N Devi, priority 1998, published 2007)
